{"source": "paper PMC9385671", "about": "(Nature Communications, 2022)", "molecules": {"B1": {"name": "Wild type FtsZ-YFP-mts: truncated FtsZ(1-366) fused with yellow fluorescent protein (YFP) and a membrane-targeting sequence (mts) (protein)", "chain": "MFEPMELTNDAVIKVIGVGGGGGNAVEHMVRERIEGVEFFAVNTDAQALRKTAVGQTIQIGSGITKGLGAGANPEVGRNAADEDRDALRAALEGADMVFIAAGMGGGTGTGAAPVVAEVAKDLGILTVAVVTKPFNFEGKKRMAFAEQGITELSKHVDSLITIPNDKLLKVLGRGISLLDAFGAANDVLKGAVQGIAELITRPGLMNVDFADVRTVMSEMGYAMMGSGVASGEDRAEEAAEMAISSPLLEDIDLSGARGVLVNITAGFDLRLDEFETVGNTIRAFASDNATVVIGTSLDPDMNDELRVTVVATGIGMDKRPEITLVTNKQVQQPVMDRYQQHGMAPLTQEQKPVAKVVNDNAPQTA", "modifications": "left off: YFP, end not stated, kept | mts (membrane-targeting sequence), end not stated, kept"}}, "key": {"[1]": {"target": "T1, FtsZ-YFP-mts (Escherichia coli, UniProt P0A9A6)", "details": "on SLB; slope of kymographs", "method": "(§1) Images corresponded to an average of 5–10 frames from a time-series experiment. For the kymograph analysis, time-series acquisitions were filtered using a standard mean filter (2 pixel) and were drift corrected (multistackreg plugin). A MATLAB script allowed the user to define a ring by providing two coordinates. Every ring was automatically fitted to a circle with radius r. Then, three trajectories corresponding to three concentric circles having radii r, r + 1, and r − 1 pixels were determined. At this point, the script read the time-series data and calculated a kymograph for each time point and trajectory. To automatically calculate the slope, the kymograph was smoothed with a Savitzky-Golay filter of order 2 and enhance its contrast using a contrast-limited-adaptive-histogram-equalization (CLAHE) routine (MATLAB). Next, using Fourier analysis from previous study, the characteristic frequency for the patterns on the kymograph was found. Finally, the slope corresponded to the change in phase at this frequency. Quality criteria were properly chosen to reject low-quality regions over the kymograph. To synchronize time-lapse acquisitions, the initial frame (time 0) was defined when surface mean intensity was around 200 A.U."}, "[2]": {"tested_on": "FtsZ-YFP-mts", "details": "on SLB; mean ± SD", "method": "as §1"}, "[3]": {"target": "T1, FtsZ-YFP-mts", "details": "on SLB; n = 6", "method": "(§2) Fluorescence recovery after photobleaching data (FRAP) on the SLB were evaluated by choosing two separately circle areas (r = 4 µm). One circle was taken as a reference. Another one was photobleached by 20 iterations of 488 nm, laser under 100% laser power. Their fluorescence recovery in the green channel was monitored. Intensity traces were collected using Fiji, corrected for photobleaching and normalized with the pre-bleaching intensity and the reference intensity. The fluorescence recovery curves were then fitted with mono-exponential equation using Originpro (v_2017 & v_2019):1 Y=Ae^−kt+B, where Y represents fluorescence intensity at time t, A and B are parameters, and k represents the rate constant. The half-life, t1/2, was determined using the following equation:2 t1/2=ln2k^−1"}, "[4]": {"tested_on": "FtsZ-YFP-mts", "details": "FRAP", "method": "as §2"}, "[5]": {"target": "T1, FtsZ-YFP-mts", "details": "total protein 0.5 µM", "method": "The final volume of a sample was approximately 250 μl. […] Polymerization was induced by adding 4 mM GTP."}, "[6]": {"target": "T1, FtsZ-YFP-mts", "format": "biochemical", "set-up": "made in house; host or cells: E. coli BL21(DE3) for the wild type", "details": "5 μM protein, 1 mM GTP", "method": "Reactions were performed every 20 s for a total time of 120 s. After 30 min of incubation with BIOMOL® GREEN at room temperature, the absorbance of the samples at 620 nm was monitored by TECAN plate reader. The phosphate release concentrations were calculated based on a phosphate standard curve."}, "[7]": {"target": "T1, FtsZ-YFP-mts", "set-up": "made in house; host or cells: E. coli BL21(DE3) for the wild type", "details": "0.5 μM protein, 4 mM GTP", "method": "1,2-dioleoyl-sn-glycero-3-phosphocholine (DOPC):1,2-dioleoyl-sn-glycero-3-phospho-(1’-rac-glycerol) (DOPG), 70:30 mol % mixture, was dissolved in chloroform in a quartz container, then dehumidified under a gas nitrogen stream. Chloroform traces were further removed through desiccation (1 h). Afterwards, the lipid film was hydrated to a final concentration of 4 mg/ml in supported lipid bilayers (SLB) buffer (50 mM Tris-HCl at pH 7.5, 150 mM KCl), and incubated at 37 °C for 30 min. The lipid film was then completely resuspended by vortexing rigorously to obtain multilamellar vesicles of different sizes. This mixture was then placed in a bath sonicator where shear forces help to reduce the size of the vesicles, giving rise to small unilamellar vesicles (SUVs). The SUV dispersion were stored at −20 °C as 20 µl aliquots.\nGlass coverslips (1.5#, 24 x 24 mm) were cleaned by piranha solution overnight, followed by extensive washing with milliQ H2O. Then glass coverslips were blown dry with compressed air. The reaction chamber was prepared by attaching a plastic ring on a cleaned glass coverslip using ultraviolet glue (Thorlabs No. 68). For supported lipid bilayer formation, the SUV dispersion was diluted in SLB buffer to 0.5 mg/ml, of which 75 µl was added to the reaction chamber. Adding CaCl2 to a final concentration of 3 mM induced fusion of the vesicles and the formation of a lipid bilayer on coversilde. After 20 min of incubation at 37 °C, the sample was rinsed with 2 ml pre-warmed SLB buffer.\nPolymerization was induced by adding 4 mM GTP.\nThe UltimateFocus feature of DeltaVision Elite maintains the focus plane constant in time. […] Fluorescence imaging was performed using a standard FITC filter set. Images were acquired with a PCO sCMOS 5.5 camera (PCO, Germany) controlled by the softWoRx Software (GE Healthcare Life Sciences, Germany). For time-lapse experiments, images were acquired every 3 s with a 0.05 s exposure time and light illumination shuttered between acquisitions."}}, "note": "Where “and” joins values, the source holds several entries; their conditions need not be identical. Equal values may be shown once.", "data": [{"molecule": "B1", "values": [{"measurement": "Mean rotation (treadmilling) velocity", "setting": "[1]", "value": "21.63 ± 5.11", "unit": "nm/s"}, {"measurement": "Treadmilling velocity", "setting": "[2]", "value": "21.63 ± 5.11", "unit": "nm/s"}, {"measurement": "FRAP half-time", "setting": "[3]", "value": "4.97 ± 0.24", "unit": "s"}, {"measurement": "half time, ave", "setting": "[4]; average of the three measurements (stdev in the row below), Fig. 2h", "value": 4.974, "unit": "s"}, {"measurement": "half time", "setting": "[4]; individual measurements, source data of Fig. 2h", "value": "4.866 s and 5.251 s and 4.806 s"}, {"measurement": "Ring density, Average", "setting": "[5]; average of three repeats", "value": 144248, "unit": "µm−2"}, {"measurement": "Ring density, single repeats", "setting": "[5]; repeats 1-3, listed as 0 Cl2Y", "value": "133565 µm−2 and 142057 µm−2 and 157123 µm−2"}, {"measurement": "Ring density", "setting": "[5]; stated percentage of Cl2Y modified variant", "value": "1.44 (±0.12) × 10^5 µm^−2"}, {"measurement": "GTPase activity, Average", "setting": "[6]; average of two repeats", "value": 7.3492, "unit": "pi/min"}, {"measurement": "GTPase activity, single repeats", "setting": "[6]; repeat 1 and repeat 2", "value": "7.7984 pi/min and 6.9 pi/min"}, {"measurement": "Phosphate at Time 0.3 min", "setting": "[6]; time 0.3 min, repeats 1 and 2", "value": "6.378 µM and 10.2373 µM"}, {"measurement": "Phosphate at Time 0.7 min", "setting": "[6]; time 0.7 min, repeats 1 and 2", "value": 8.111, "unit": "µM"}, {"measurement": "Phosphate at Time 1 min", "setting": "[6]; time 1 min, repeats 1 and 2", "value": "13.7966 µM and 9.644 µM"}, {"measurement": "Phosphate at Time 2 min", "setting": "[6]; time 2 min, repeats 1 and 2", "value": "19.8222 µM and 22.4068 µM"}, {"measurement": "Ring pattern formation on supported lipid bilayer", "setting": "[7]; TIRFM", "value": "homogeneous treadmilling ring pattern"}, {"measurement": "Average ring diameter", "setting": "[7]; on SLB, mean ± SD", "value": "0.80 ± 0.18", "unit": "μm"}]}]}
